What all share (assay): SPR
Assay [1] has as its target T1, Human TBK1 (1–657, S172A) (human, UniProt Q9UHD2 1-657, S172A).
T1 sequence: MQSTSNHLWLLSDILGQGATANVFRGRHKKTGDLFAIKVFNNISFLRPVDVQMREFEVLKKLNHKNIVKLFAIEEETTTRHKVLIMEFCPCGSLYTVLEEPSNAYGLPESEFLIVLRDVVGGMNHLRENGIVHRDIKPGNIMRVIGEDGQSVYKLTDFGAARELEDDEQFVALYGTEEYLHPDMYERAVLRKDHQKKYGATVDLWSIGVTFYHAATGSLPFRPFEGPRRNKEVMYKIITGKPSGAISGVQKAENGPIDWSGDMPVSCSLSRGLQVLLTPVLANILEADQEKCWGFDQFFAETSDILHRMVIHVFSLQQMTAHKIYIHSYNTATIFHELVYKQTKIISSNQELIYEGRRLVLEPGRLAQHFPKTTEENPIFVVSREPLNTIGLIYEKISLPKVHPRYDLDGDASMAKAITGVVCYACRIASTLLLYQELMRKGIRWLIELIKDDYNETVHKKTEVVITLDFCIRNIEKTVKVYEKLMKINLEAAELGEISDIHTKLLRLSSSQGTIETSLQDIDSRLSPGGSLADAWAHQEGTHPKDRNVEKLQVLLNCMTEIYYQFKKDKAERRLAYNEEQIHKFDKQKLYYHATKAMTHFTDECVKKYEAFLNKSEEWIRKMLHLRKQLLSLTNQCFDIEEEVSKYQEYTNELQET

The target in assay [2] is T2, Mouse TBK1 (1–657, S172A) (mouse, UniProt Q9WUN2 1-657, S172A).
T2 sequence: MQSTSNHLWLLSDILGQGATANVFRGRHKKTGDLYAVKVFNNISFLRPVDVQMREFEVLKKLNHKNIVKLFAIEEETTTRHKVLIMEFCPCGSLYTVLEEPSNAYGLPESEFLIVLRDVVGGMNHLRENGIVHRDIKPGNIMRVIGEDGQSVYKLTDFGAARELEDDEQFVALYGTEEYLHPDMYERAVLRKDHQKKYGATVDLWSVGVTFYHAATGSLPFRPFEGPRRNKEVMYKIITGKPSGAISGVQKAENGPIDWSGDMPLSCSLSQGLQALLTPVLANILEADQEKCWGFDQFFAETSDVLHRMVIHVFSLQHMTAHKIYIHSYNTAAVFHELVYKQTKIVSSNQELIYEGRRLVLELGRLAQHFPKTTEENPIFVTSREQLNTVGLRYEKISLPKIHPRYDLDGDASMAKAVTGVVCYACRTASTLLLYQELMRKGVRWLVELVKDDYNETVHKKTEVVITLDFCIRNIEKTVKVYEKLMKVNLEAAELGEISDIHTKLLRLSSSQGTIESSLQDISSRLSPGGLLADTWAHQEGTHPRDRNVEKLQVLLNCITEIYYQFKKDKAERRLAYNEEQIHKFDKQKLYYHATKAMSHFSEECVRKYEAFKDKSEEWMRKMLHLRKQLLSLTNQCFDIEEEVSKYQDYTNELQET

Assay [3] has as its target T1, Human TBK1 (1–657, S172A). This is another data set of the same source.
The target in assay [4] is T2, Mouse TBK1 (1–657, S172A). This is another data set of the same source.
For the next assay, the target named is T3, Mouse TBK1 (1–657) (mouse, UniProt Q9WUN2 1-657).
T3 sequence: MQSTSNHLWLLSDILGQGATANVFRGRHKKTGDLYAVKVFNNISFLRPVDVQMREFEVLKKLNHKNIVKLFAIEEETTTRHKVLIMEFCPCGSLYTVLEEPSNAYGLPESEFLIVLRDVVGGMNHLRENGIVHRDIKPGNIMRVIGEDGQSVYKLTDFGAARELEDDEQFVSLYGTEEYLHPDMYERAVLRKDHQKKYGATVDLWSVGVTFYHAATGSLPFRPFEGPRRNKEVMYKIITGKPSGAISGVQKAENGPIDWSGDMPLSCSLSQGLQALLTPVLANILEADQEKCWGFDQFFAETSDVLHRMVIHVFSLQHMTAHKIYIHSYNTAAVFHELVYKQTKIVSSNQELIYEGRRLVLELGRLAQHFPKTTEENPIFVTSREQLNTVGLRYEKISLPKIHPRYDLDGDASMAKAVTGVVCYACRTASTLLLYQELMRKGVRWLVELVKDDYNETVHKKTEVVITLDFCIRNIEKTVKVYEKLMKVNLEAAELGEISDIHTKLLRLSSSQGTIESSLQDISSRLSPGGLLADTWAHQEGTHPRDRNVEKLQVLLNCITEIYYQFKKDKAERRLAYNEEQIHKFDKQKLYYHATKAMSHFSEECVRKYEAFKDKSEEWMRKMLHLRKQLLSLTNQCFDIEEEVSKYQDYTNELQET

Where two headings read alike, the source gives them in different places.

The values that follow come from paper PMC6596994 (Nature, 2019).

B1: p-hSTING (155–379) (domain or fragment)
chain: VAHGLAWSYYIGYLRLILPELQARIRTYNQHYNNLLRGAVSQRLYILLPLDCGVPDNLSMADPNIRFLDKLPQQTGDHAGIKDRVYSNSIYELLENGQRAGTCVLEYATPLQTLFAMSQYSQAGFSREDRLEQAKLFCRTLEDILADAPESQNNCRLIAYQEPADDSSFSLSQEVLRHLRQEEKEEVTVGSLKTSAVPSTSTMSQEPELLISGMEKPLPLRTDFS
For B1, the Kd (as a rule, the equilibrium constant for the complex coming apart) came out at 20 µM in assay [1]; 12.5 µM in assay [2]; 11 µM in assay [3]; 9.1 µM in assay [4]; 13.3 µM with Mouse TBK1 (1–657).
